Consider one molecule from patent US20200115432A1 (published 2020).

One assay addresses T1, peptide on HLA-A*02:01 (human).
T1 peptide: VYALPLKML
Briefly: activation reporter or marker.

The target in a further assay is T2, peptide on HLA-A*24:02 (human).
T2 peptide: VYALPLKML
The experiment in a line: activation reporter or marker.

B1: JG9-TCR (TCR, V domains shown)
Valpha: GQQLNQSPQSMFIQEGEDVSMNCTSSSIFNTWLWYKQEPGEGPVLLIALYKAGELTSNGRLTAQFGITRKDSFLNISASIPSDVGIYFCAGPMKTSYDKVIFGPGTSLSVIP
Vbeta: DAGVIQSPRHEVTEMGQEVTLRCKPISGHDYLFWYRQTMMRGLELLIYFNNNVPIDDSGMPEDRFSAKMPNASFSTLKIQPSEPRDSAVYFCASSSANYGYTFGSGTRLTVV
As for B1, the binding result with peptide on HLA-A*02:01 and with peptide on HLA-A*24:02 was “no recognition” throughout.
